According to publication PMC13286378, “The SPN-4 Rbfox RNA-binding protein selects maternal mRNAs for CCR4-NOT-dependent clearance in early Caenorhabditis elegans embryos”:
Numbering of substitutions follows the chain as printed.

T1: SPN-4 RRM (3xFLAG::SPN-4 RRM::6xHis) (Caenorhabditis elegans, UniProt G5EF02 1-200)
T1 sequence: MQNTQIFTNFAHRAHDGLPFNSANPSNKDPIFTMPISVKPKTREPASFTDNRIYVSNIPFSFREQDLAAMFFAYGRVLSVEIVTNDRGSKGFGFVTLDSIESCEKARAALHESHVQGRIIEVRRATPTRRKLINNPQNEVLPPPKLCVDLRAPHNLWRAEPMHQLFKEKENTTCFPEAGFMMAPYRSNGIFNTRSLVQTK

B1: chs-1(40-79) Rbfox mutant control (ssRNA)
RNA: AUUAGUAUUAUUAUUAUUACAAACUCUUACCUCAUCUCUC
B2: lin-41(1023-1047) (ssRNA)
RNA: UUAAUGCAUGCUUCCUGCACGCCCC
B3: lin-41(995-1054) (ssRNA)
RNA: GUGCCCUAGCGCUAAAUAUUGUUUUAUUUUAAUGCAUGCUUCCUGCACGCCCCUCCCCCU
B4: chs-1(40-79) (ssRNA)
RNA: B1 RNA with A19G, A22U, A23G
B5: lin-41(1023-1047) motif 2 (ssRNA)
RNA: UUAAUACAAACUUCCUGCACGCCCC
B6: lin-41(1023-1047) motif 1 (ssRNA)
RNA: UUAAUGCAUGCUUCCUACAAACCCC

Molecular target: T1, SPN-4 RRM (3xFLAG::SPN-4 RRM::6xHis)
Assay: EMSA; did not bind specifically; 10 mM Tris-HCl pH 7.5, 150 mM NaCl, 0.001% NP-40, 10% glycerol, 0.01 mg/ml tRNA, 0.025% Tween-20; 32 nM RNA, 50 nM-2.9 uM protein; 15 min, room temperature; 8%
Settings: protein: recombinant; tags: N-terminal 3xFLAG (MBP removed by TEV), C-terminal 6xHis; label: 5' Cy5

Binder | binding result
B1 | no binding

Molecular target: T1, SPN-4 RRM (3xFLAG::SPN-4 RRM::6xHis)
Assay: EMSA; 10 mM Tris-HCl pH 7.5, 150 mM NaCl, 0.001% NP-40, 10% glycerol, 0.01 mg/ml tRNA, 0.025% Tween-20; 32 nM RNA, 50 nM-2.9 uM protein; 15 min, room temperature; 8%
Settings: protein: recombinant; tags: N-terminal 3xFLAG (MBP removed by TEV), C-terminal 6xHis; label: 5' Cy5

Binder | Kd
B2 | 285 ± 29.4 nM
B3 | 308 ± 17.9 nM
B4 | 174 ± 13.5 nM
B5 | 1640 ± 146 nM
B6 | 230 ± 8.1 nM
